B1: Hammerhead Ribozyme (parent)
chain: ACCGGAUGUGCUUUCCGGUCUGAUGAGUCCGUGAGGACGAAACAG

Variants of: B1
Test: self-cleavage, relative activity (ratio to wild type); higher = more cleavage; co-transcriptional

Point of comparison: ACCGGAUGUGCUUUCCGGUCUGAUGAGUCCGUGAGGACGAAAGAU [C43G G45U], self-cleavage 0.835. Against it:
- ACCGGAUGUGCUUUCCGGUCUGAUGAGUCCGUGAGGACGAAACCG [A44C] — lower, 0.663
- ACCGGAUGUGCUUUCCGGUCUGAUGAGUCCGUGAGGACGAAACGG [A44G] — higher, 1.53
- ACCGGAUGUGCUUUCCGGUCUGAUGAGUCCGUGAGGACGAAUCUG [A42U A44U] — lower, 0.276
- ACCGGAUGUGCUUUCCGGUCUGAUGAGUCCGUGAGGACGAAUCGG [A42U A44G] — higher, 1.37
- ACCGGAUGUGCUUUCCGGUCUGAUGAGUCCGUGAGGACGAAUCCG [A42U A44C] — higher, 0.96
- ACCGGAUGUGCUUUCCGGUCUGAUGAGUCCGUGAGGACGAAAAUG [C43A A44U] — lower, 0.391
- ACCGGAUGUGCUUUCCGGUCUGAUGAGUCCGUGAGGACGAAAAGG [C43A A44G] — lower, 0.304
- ACCGGAUGUGCUUUCCGGUCUGAUGAGUCCGUGAGGACGAAAACG [C43A A44C] — lower, 0.474
- ACCGGAUGUGCUUUCCGGUCUGAUGAGUCCGUGAGGACGAAUCAA [A42U G45A] — lower, 0.374
- ACCGGAUGUGCUUUCCGGUCUGAUGAGUCCGUGAGGACGAAUCAC [A42U G45C] — lower, 0.404
- ACCGGAUGUGCUUUCCGGUCUGAUGAGUCCGUGAGGACGAAUCAU [A42U G45U] — lower, 0.427
- ACCGGAUGUGCUUUCCGGUCUGAUGAGUCCGUGAGGACGAACCUG [A42C A44U] — lower, 0.351
- ACCGGAUGUGCUUUCCGGUCUGAUGAGUCCGUGAGGACGAACCGG [A42C A44G] — higher, 1.06
- ACCGGAUGUGCUUUCCGGUCUGAUGAGUCCGUGAGGACGAAAGAA [C43G G45A] — lower, 0.327
- ACCGGAUGUGCUUUCCGGUCUGAUGAGUCCGUGAGGACGAAAGAC [C43G G45C] — lower, 0.378
- ACCGGAUGUGCUUUCCGGUCUGAUGAGUCCGUGAGGACGAAUAAG [A42U C43A] — lower, 0.344
- ACCGGAUGUGCUUUCCGGUCUGAUGAGUCCGUGAGGACGAAUUAG [A42U C43U] — lower, 0.247
- ACCGGAUGUGCUUUCCGGUCUGAUGAGUCCGUGAGGACGAAUGAG [A42U C43G] — lower, 0.255
- ACCGGAUGUGCUUUCCGGUCUGAUGAGUCCGUGAGGACGAAGCUG [A42G A44U] — lower, 0.233
- ACCGGAUGUGCUUUCCGGUCUGAUGAGUCCGUGAGGACGAAGCCG [A42G A44C] — lower, 0.484
- ACCGGAUGUGCUUUCCGGUCUGAUGAGUCCGUGAGGACGAAGCGG [A42G A44G] — lower, 0.544
- ACCGGAUGUGCUUUCCGGUCUGAUGAGUCCGUGAGGACGAAAAAU [C43A G45U] — lower, 0.68
- ACCGGAUGUGCUUUCCGGUCUGAUGAGUCCGUGAGGACGAAAAAA [C43A G45A] — lower, 0.515
- ACCGGAUGUGCUUUCCGGUCUGAUGAGUCCGUGAGGACGAAAAAC [C43A G45C] — lower, 0.441
- ACCGGAUGUGCUUUCCGGUCUGAUGAGUCCGUGAGGACGAAACGC [A44G G45C] — higher, 2.15
- ACCGGAUGUGCUUUCCGGUCUGAUGAGUCCGUGAGGACGAAACGU [A44G G45U] — higher, 1.93
- ACCGGAUGUGCUUUCCGGUCUGAUGAGUCCGUGAGGACGAAACGA [A44G G45A] — higher, 1.25
- ACCGGAUGUGCUUUCCGGUCUGAUGAGUCCGUGAGGACGAAGGAG [A42G C43G] — lower, 0.308
- ACCGGAUGUGCUUUCCGGUCUGAUGAGUCCGUGAGGACGAAGUAG [A42G C43U] — lower, 0.326
- ACCGGAUGUGCUUUCCGGUCUGAUGAGUCCGUGAGGACGAAGAAG [A42G C43A] — lower, 0.309
- ACCGGAUGUGCUUUCCGGUCUGAUGAGUCCGUGAGGACGAACCAA [A42C G45A] — lower, 0.539
- ACCGGAUGUGCUUUCCGGUCUGAUGAGUCCGUGAGGACGAACCAC [A42C G45C] — lower, 0.451
- ACCGGAUGUGCUUUCCGGUCUGAUGAGUCCGUGAGGACGAACCAU [A42C G45U] — lower, 0.421
- ACCGGAUGUGCUUUCCGGUCUGAUGAGUCCGUGAGGACGAAGCAC [A42G G45C] — lower, 0.31
- ACCGGAUGUGCUUUCCGGUCUGAUGAGUCCGUGAGGACGAAGCAU [A42G G45U] — lower, 0.354
- ACCGGAUGUGCUUUCCGGUCUGAUGAGUCCGUGAGGACGAAGCAA [A42G G45A] — lower, 0.306
- ACCGGAUGUGCUUUCCGGUCUGAUGAGUCCGUGAGGACGAAAUCG [C43U A44C] — higher, 1.93
- ACCGGAUGUGCUUUCCGGUCUGAUGAGUCCGUGAGGACGAAAUGG [C43U A44G] — lower, 0.586
- ACCGGAUGUGCUUUCCGGUCUGAUGAGUCCGUGAGGACGAAAUUG [C43U A44U] — lower, 0.346
- ACCGGAUGUGCUUUCCGGUCUGAUGAGUCCGUGAGGACGAAAGUG [C43G A44U] — lower, 0.359
- ACCGGAUGUGCUUUCCGGUCUGAUGAGUCCGUGAGGACGAAAGGG [C43G A44G] — higher, 0.934
- ACCGGAUGUGCUUUCCGGUCUGAUGAGUCCGUGAGGACGAAAGCG [C43G A44C] — lower, 0.464
- ACCGGAUGUGCUUUCCGGUCUGAUGAGUCCGUGAGGACGAAAAAG [C43A] — lower, 0.375
- ACCGGAUGUGCUUUCCGGUCUGAUGAGUCCGUGAGGACGAAAUAG [C43U] — lower, 0.608
- ACCGGAUGUGCUUUCCGGUCUGAUGAGUCCGUGAGGACGAAAGAG [C43G] — lower, 0.406
- ACCGGAUGUGCUUUCCGGUCUGAUGAGUCCGUGAGGACGAAAUAA [C43U G45A] — lower, 0.419
- ACCGGAUGUGCUUUCCGGUCUGAUGAGUCCGUGAGGACGAAAUAU [C43U G45U] — lower, 0.423
- ACCGGAUGUGCUUUCCGGUCUGAUGAGUCCGUGAGGACGAAAUAC [C43U G45C] — lower, 0.451
- ACCGGAUGUGCUUUCCGGUCUGAUGAGUCCGUGAGGACGAACGAG [A42C C43G] — lower, 0.271
- ACCGGAUGUGCUUUCCGGUCUGAUGAGUCCGUGAGGACGAACAAG [A42C C43A] — lower, 0.368
- ACCGGAUGUGCUUUCCGGUCUGAUGAGUCCGUGAGGACGAACUAG [A42C C43U] — lower, 0.38
- ACCGGAUGUGCUUUCCGGUCUGAUGAGUCCGUGAGGACGAAGCAG [A42G] — lower, 0.336
- ACCGGAUGUGCUUUCCGGUCUGAUGAGUCCGUGAGGACGAAUCAG [A42U] — lower, 0.338
- ACCGGAUGUGCUUUCCGGUCUGAUGAGUCCGUGAGGACGAAACCU [A44C G45U] — lower, 0.721
- ACCGGAUGUGCUUUCCGGUCUGAUGAGUCCGUGAGGACGAAACCA [A44C G45A] — higher, 0.932
- ACCGGAUGUGCUUUCCGGUCUGAUGAGUCCGUGAGGACGAAACCC [A44C G45C] — higher, 1.14
